Experiments:
Conditions in all cases: both partners purified
[1] = biological target: T1, furin-resistant mouse proNGF (mouse, UniProt P01139 122-241); assay: SPR; equilibrium binding, IBIS MX96; NGF, proNGF and proBDNF amine-coupled, s-sortilin as analyte; 25 mM MES pH 5.0, 150 mM NaCl, 0.005% Tween 20, 25 °C; 1:1 Langmuir model
T1 chain: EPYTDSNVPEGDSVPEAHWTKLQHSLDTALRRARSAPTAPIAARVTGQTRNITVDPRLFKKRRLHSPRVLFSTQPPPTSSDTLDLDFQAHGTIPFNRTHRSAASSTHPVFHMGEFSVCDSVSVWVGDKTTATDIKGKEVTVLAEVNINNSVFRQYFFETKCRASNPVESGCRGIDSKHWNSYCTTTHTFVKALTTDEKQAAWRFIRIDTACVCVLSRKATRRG

[2] = biological target: T2, Nerve Growth Factor (NGF), mouse (mouse, UniProt P01139 122-241); assay: as above
T2 construct: Mouse NGF purified from submaxillary glands; the mature neurotrophin as against proNGF; also called Mouse NGF; source: bought: Biorad (purified from submaxillary glands)

[3] = biological target: T1, furin-resistant mouse proNGF; assay: SPR; equilibrium binding, IBIS MX96; NGF, proNGF and proBDNF amine-coupled, s-sortilin as analyte; 25 mM HEPES pH 7.4, 150 mM NaCl, 0.005% Tween 20, 25 °C; 1:1 Langmuir model
[4] = biological target: T2, Nerve Growth Factor (NGF), mouse; assay: as above
[5] = biological target: T3, Mouse s-sortilin A464E, native glycans (mouse); assay: SPR; MX96 (IBIS); NGF, proNGF and proBDNF amine-coupled to a P-COOH SensEye sensor, s-sortilin flowed over as analyte; 25 mM MES pH 5.0, 150 mM NaCl, 0.005% Tween 20, 25 °C; equilibrium binding, 1:1 Langmuir model
T3 construct: Sortilin (Sort1), mouse, luminal segment, residues 1-722 with A464E; secreted with a cystatin signal peptide; Same limits as Dm1; also called A464E s-sortilin; source: HEK293-E, secreted, purified (Ni-NTA, SEC)

B1: s-sortilin A464E (dimerization interface mutant of the mouse sortilin luminal segment) (domain or fragment)
chain: RRGAPAEDQDCGRLPDFIAKLTNNTHQHVFDDLSGSVSLSWVGDSTGVILVLTTFQVPLVIVSFGQSKLYRSEDYGKNFKDITNLINNTFIRTEFGMAIGPENSGKVILTAEVSGGSRGGRVFRSSDFAKNFVQTDLPFHPLTQMMYSPQNSDYLLALSTENGLWVSKNFGEKWEEIHKAVCLAKWGPNNIIFFTTHVNGSCKADLGALELWRTSDLGKTFKTIGVKIYSFGLGGRFLFASVMADKDTTRRIHVSTDQGDTWSMAQLPSVGQEQFYSILAANEDMVFMHVDEPGDTGFGTIFTSDDRGIVYSKSLDRHLYTTTGGETDFTNVTSLRGVYITSTLSEDNSIQSMITFDQGGRWEHLRKPENSKCDATAKNKNECSLHIHASYSISQKLNVPMAPLSEPNAVGIVIAHGSVGDEISVMVPDVYISDDGGYSWAKMLEGPHYYTILDSGGIIVAIEHSNRPINVIKFSTDEGQCWQSYVFTQEPIYFTGLASEPGARSMNISIWGFTESFITRQWVSYTVDFKDILERNCEEDDYTTWLAHSTDPGDYKDGCILGYKEQFLRLRKSSVCQNGRDYVVAKQPSVCPCSLEDFLCDFGYFRPENASECVEQPELKGHELEFCLYGKEEHLTTNGYRKIPGDKCQGGMNPAREVKDLKKKCTSNFLNPTKQNSKSN
modifications: native glycans (HEK293-E)
In the case of B1, the “fold reduction of binding at pH 5.0 against pH 7.4” value [1] is reported as 2 fold, the “fold reduction of binding at pH 5.0 against pH 7.4” value [2] is reported as 2 fold and the Kd [3] is reported as 810 nM. It also gave a Kd [4] of 320 nM.

B2: Furin-resistant mouse proNGF (ligand)
chain: EPYTDSNVPEGDSVPEAHWTKLQHSLDTALAAARSAPTAPIAARVTGQTRNITVDPRLFKKAALHSPRVLFSTQPPPTSSDTLDLDFQAHGTIPFNRTHRSAASSTHPVFHMGEFSVCDSVSVWVGDKTTATDIKGKEVTVLAEVNINNSVFRQYFFETKCRASNPVESGCRGIDSKHWNSYCTTTHTFVKALTTDEKQAAWRFIRIDTACVCVLSRKATRRG
B2 was tested, and the Kd [5] was 2280 ± 260 nM.

— PMC5700061 (Nature Communications, 2017)
